# Experimental data reported in patent US20020077289A1, “Angiostatin and endostatin binding proteins and methods of use” (priority 2000, published 2002).
# What was measured:
# [1] = tested on: wound healing; details: in vivo; cited from earlier work
# [2] = tested on: B16-BL6 melanoma cells; test: B16-BL6 experimental metastasis assay; type: in vivo, C57BL/6J mice
# Experimental: C57BL/6J mice were injected via the tail vein with 5×10^4 B16-BL6 melanoma cells on day 0. On day 3, groups of five mice received daily subcutaneous doses of either buffer control, 1.5 nmol (1.5 mg/kg/day) of rhEndostatin in combination with 0, 15, 75 or 375 nmol of control or E37 peptide, or control or E37 peptide alone for eleven days. All mice were sacrificed on day 14, and the number of pulmonary surface metastases in each animal counted. Error bars indicate standard deviation of the mean.
# C57BL/6J mice (n=8) were injected intravenously (i.v.) with 5×10^4 B16-BL6 cells/mouse. Three days later treatment commenced. 100 μl of citrate-phosphate buffer (66 mM Sodium Phosphate, 17 mM Citric acid, 59 mM NaCl pH 6.2) containing 1.5 nmol of rhEndostatin and 100 μl of PBS containing either 0, 15, 75 or 375 nmol of control or E37 peptide were mixed and injected subcutaneously (s.c.) daily for 11 days. All mice were then sacrificed, their lungs removed and the number of surface metastases counted. Results were analyzed for statistical significance using the 2-tailed Student's t-test.
# The following experiment was conducted to determine the interaction of E37 peptide and Endostatin protein. Briefly, the B16BL6 experimental metastasis assay, as known to those of skill in the art and further described in International Patent Application number PCT/US99/11418, was performed as follows. 5×10^4 B16-BL6 cells in 200 μl of PBS were injected into C57BL/6J mice via the tail vein. Three days post injection treatment was started. The injection received by eight groups of mice were: 1) citrate phosphate/PBS buffer, 2) ^30 μg Endostatin protein (in 100 μl PBS), 3) 30 μg Endostatin protein (in 200 μl PBS), 4) 30 μg Endostatin protein plus 50 times molar excess of control peptide (in 200 μl PBS), 5) 30 μg Endostatin protein plus 250 times molar excess of control peptide (in 200 μl PBS), 6) 30 μg Endostatin protein plus 10 times molar excess of E37 peptide (in 200 μl PBS), 7) 30 μg Endostatin protein plus 50 times molar excess of E37 peptide (in 200 μl PBS), and 8) 30 μg Endostatin protein plus 250 times molar excess of E37 peptide (in 200 μl PBS). Doses were administered daily for eleven days posterior to the thoracic cavity subcutaneously. All mice were sacrificed, the lungs removed and the number of surface metastases in each animal were counted under a stereo microscope.
# [3] = tested on: intratumoral blood flow; details: systemic rhEndostatin therapy; cited from earlier work
# [4] = tested on: viable HUVECs; test: Internalization of Alexa Fluor 488 labeled rhEndostatin by viable HUVECs; type: cell-based, human
# Experimental: To determine whether live endothelial cells actively internalize Endostatin protein, viable HUVECs were incubated with Alexa Fluor™ 488 labeled rhEndostatin protein. […] Internalized rhEndostatin was rapidly processed such that by 60 minutes, little if any intercellular fluorescence was detected (data not shown).
# [5] = tested on: primary cultures of pericytes; test: Proliferation of PDGF-BB or 20% fetal calf serum stimulated pericytes (thymidine incorporation, MTT); type: cell-based
# Text: Endostatin protein results in an inhibition of proliferation of PDGF-BB or 20% fetal calf serum stimulated primary cultures of pericytes and to a lesser extent fibroblasts. […] The results have been confirmed using a MTT proliferation kit.
# Endostatin protein tends to have a greater effect on cells in the earlier stages of differentiation. While such cells constitute a small fraction of the total number, inhibiting their proliferation may have significant effects on the final total cell number. Endostatin protein's effect on cells early in the differentiation pathway results in a reduction of 70-80% of the final cell number. Endostatin protein also changes the morphology of these cells (data not shown).
# [6] = Pharmacokinetics: serum rhEndostatin levels after s.c. administration; type: in vivo, C57BL/6J mice; details: for AUClast: sera 0.17-2 hours
# Experimental: To determine the pharmacokinetics, C57BL/6J mice (3 per time point) were dosed s.c. with 1.5 nmol of rhEndostatin alone or in combination with 375 nmol of either E37 or control peptide. Sera was collected 0.17, 0.5, 1 and 2 hours following s.c. administration. Serum drug levels were determined using an Endostatin EIA kit (Cytlmmune Sciences, College Park, Md.) according to the manufacture's instructions. Pharmacokinetic analyses of the serum concentration versus time data were performed by nonlinear least square minimization using RSTRIP (Version 4.03, MicroMath Scientific Software, Salt Lake City, Ut.).
# Groups of mice (3 mice/time point) were injected s.c. with 1.5 nmol of rhEndostatin alone or in combination with a 250-fold molar excess of either E37 or control peptide. Sera were collected at 0.17, 0.5, 1 and 2 hours following s.c. administration, and assessed for serum rhEndostatin levels as previously described (Sim et al.)
# [7] = parenteral administration; cited from earlier work
molecule,measurement,setting,value
"rhEndostatin: recombinant human Endostatin, antiangiogenic fragment of a C-terminal non-collagenous region of a collagen protein, produced in P. pastoris (protein) HSHRDFQPVLHLVALNSPLSGGMRGIRGADFQCFQQARAVGLAGTFRAFLSSRLQDLYSIVRRADRAAVPIVNLKDELLFPSWEALFSGSEGPLKPGARIFSFDGKDVLRHPTWPQKSVWHGSDPNGRRLTESYCETWRTEAPSATGQASSLLGGRLLGQSAASCHHAYIVLCIENSFMTASK",effect on wound healing,[1],remained unaffected
same,inhibition of lung metastasis,[2]; 1.5 nmol rhEndostatin co-administered with 250-fold molar excess of E37 peptide,11%
same,inhibition of the formation of lung metastasis,"[2]; 30 μg Endostatin protein alone, daily s.c. for eleven days",approximately 79%
same,inhibition of the formation of lung metastasis,[2]; 30 μg Endostatin protein plus 10 fold molar excess of E37 peptide,approximately 76%
same,inhibition of the formation of lung metastasis,[2]; 30 μg Endostatin protein plus 50 fold molar excess of E37 peptide,approximately 61%
same,inhibition of the formation of lung metastasis,[2]; 30 μg Endostatin protein plus 50 fold molar excess of negative control peptide,approximately 79%
same,inhibition of the formation of lung metastasis,[2]; 30 μg Endostatin protein plus 250 fold molar excess of E37 peptide,approximately 21%
same,inhibition of the formation of lung metastasis,[2]; 30 μg Endostatin protein plus 250 fold molar excess of negative control peptide,approximately 73%
same,inhibition of growth of experimental B16-BL6 lung metastases compared to buffer treated control mice,[2]; daily 1.5 nmol rhEndostatin (1.5 mg/kg/day),greater than 70%
same,reduction of intratumoral blood flow,[3],50%
same,internalization by live endothelial cells,[4],rapidly internalized and translocated predominantly to the nucleus
same,differentiation of pericytes to fibroblasts,[5],does not appear to affect
same,reduction of the final cell number,[5]; effect on cells early in the pericyte/fibroblast differentiation pathway,70-80%
same,thymidine incorporation into primary cultures of pericytes,[5]; stimulated with PDGF-BB or 20% fetal calf serum,consistent reduction in thymidine incorporation
same,AUClast,[6]; 1.5 nmol rhEndostatin s.c. + 250x E37 peptide,4544 ng·min/mL
same,AUClast,[6]; 1.5 nmol rhEndostatin s.c. + 250x control peptide,5552 ng·min/mL
same,AUClast,[6]; 1.5 nmol rhEndostatin s.c. alone,5370 ng·min/mL
same,AUClast relative to rhEndostatin alone or with 375 nmol control peptide,[6]; 1.5 nmol rhEndostatin s.c. co-administered with 250-fold molar excess of E37 peptide,85%
same,circulating levels,[7],nM range
